The source of these data is publication PMC3676807, “A Chimeric UDP-Glucose Pyrophosphorylase Produced by Protein Engineering Exhibits Sensitivity to Allosteric Regulators” (International Journal of Molecular Sciences, 2013).

For series [1], the target named is T1, SmuGalU-Δ294EcoGlgC (chimeric UDP-Glc PPase).
T1 construct: gene galU; entire S. mutans GalU fused to the 137 C-terminal residues of E. coli GlgC (from P295); N-terminal His-tag kept; E. coli BL21 (DE3) pLysS; homotetramer ~200 kDa
The series can be described thus: Pi release after pyrophosphatase, Malachite Green; Hill fit. The series is classed as biochemical, Streptococcus mutans; Escherichia coli. As to conditions: allosteric activator; 1 mM Glc-1P, 1 mM UTP, 3 mM Mg2+, pH 8.0, 37 °C; read-out: A0.5.

Series [2] relates to T1, SmuGalU-Δ294EcoGlgC (chimeric UDP-Glc PPase). Described as above. Type of series: biochemical, Streptococcus mutans; Escherichia coli. The conditions noted are these: UDP-Glc synthesis, no effector, 3 mM Mg2+, pH 8.0, 37 °C. An excerpt:
Pi release after pyrophosphatase, Malachite Green; Hill fit on SmuGalU-Δ294EcoGlgC (chimeric UDP-Glc PPase)

In series [3] the target is UDP-glucose pyrophosphorylase from Streptococcus mutans (SmuGalU) (Streptococcus mutans ATCC 25175). The series is described as follows: SEC; gel filtration on Superdex 200 (Tricorn 5/200 column), calibrated with protein standards 44-669 kDa; mass of the native protein; buffer not stated.
The target in series [4] is chimeric SmuGalU-Δ294EcoGlgC (Streptococcus mutans ATCC 25175 | Escherichia coli) (UniProt P0A6V1). The series is described as above.
Substrate in series [5]: Cc1cn([C@H]2C[C@H](O)[C@@H](COP(=O)(O)OP(=O)(O)OP(=O)(O)O)O2)c(=O)[nH]c1=O
The series can be described thus: Pi release after pyrophosphatase, Malachite Green; Hill fit. The series is classed as biochemical, Streptococcus mutans. As to conditions: dTDP-Glc synthesis, 1 mM Glc-1P, 3 mM Mg2+, pH 8.0, 37 °C.

Substrate in series [6]: O=P(O)(O)O[C@H]1O[C@H](CO)[C@@H](O)[C@H](O)[C@H]1O
The description is as above. Type of series: biochemical, Streptococcus mutans. The conditions noted are these: UDP-Glc synthesis, saturating UTP, 3 mM Mg2+, pH 8.0, 37 °C.

Substrate in series [7]: O=c1ccn([C@@H]2O[C@H](COP(=O)(O)OP(=O)(O)OP(=O)(O)O)[C@@H](O)[C@H]2O)c(=O)[nH]1
The description is as above. The series is classed as biochemical, Streptococcus mutans. The conditions noted are these: UDP-Glc synthesis, saturating Glc-1P, 3 mM Mg2+, pH 8.0, 37 °C.

For `O=C(O)[C@H](O)COP(=O)(O)O` [3-PGA], in series [1], the EC50 was 5.4 mM. Still for that read-out and setting: with `O=P(O)(O)OC[C@H]1OC(O)(COP(=O)(O)O)[C@@H](O)[C@@H]1O` (some centres unmarked) [Fru-1,6-bisP] the figure was 2 mM. Regarding `O=P(O)(O)O[C@H]1O[C@H](CO)[C@@H](O)[C@H](O)[C@H]1O` [Glc-1P], the Km in series [2] (saturating UTP) was determined as 60 ± 5 µM.

As to `CC(=O)C(=O)O` [Pyr], the EC50 in series [1] was 30 mM. For `O=c1ccn([C@@H]2O[C@H](COP(=O)(O)OP(=O)(O)OP(=O)(O)O)[C@@H](O)[C@H]2O)c(=O)[nH]1` [UTP], in series [2] (saturating Glc-1P), the Km came out at 240 ± 20 µM. In the case of “UDP-glucose pyrophosphorylase from Streptococcus mutans (SmuGalU) (enzyme)”, the stoichiometry N in series [3] is 4. Turning to “chimeric SmuGalU-Δ294EcoGlgC (from UniProt P0A6V1 295-431) (enzyme)”, the stoichiometry N in series [4] was found to be 4.

B1: SmuGalU (UDP-Glc PPase from S. mutans) (Streptococcus mutans UA159) (protein)
chain: MPSKKVRKAVIPAAGLGTRFLPATKALAKEMLPIVDKPTIQFIVEEALKSGIEDILVVTGKSKRSIEDHFDSNFELEYNLEQKGKTDLLKLVNDTTAINLHFIRQSHPRGLGDAVLQAKAFVGNEPFVVMLGDDLMDITDDKAIPLTRQLMNDYEETHASTIAVMEVPHEDVSAYGVIAPQGEGVSGLYSVDTFVEKPAPKEAPSNLAIIGRYLLTPEIFTILETQEPGAGNEVQLTDAIDTLNKTQRVFAREFKGKRYDVGDKFGFMKTSIDYALKHPQVKEDLKAYIIELGKKLDQKSTQKNSD
notes: full-length, N-terminal His-tag kept (pRSET-B), expressed in E. coli BL21 (DE3), Ni-NTA purified; homotetramer ~150 kDa; gene 921 bp
Consider B1, for which the K0.5 in series [5] is recorded as 0.54 mM. Further, in series [6], the K0.5 turned out to be 0.090 ± 0.005 mM, the maximum rate (Vmax) was determined as 62.1 µmol/min/mg and the Vmax/Km came to 690000 µL/min/mg. Also, in series [7], the K0.5 is reported as 0.68 ± 0.06 mM, the maximum rate (Vmax) amounted to 62.1 µmol/min/mg and the Vmax/Km came out at 91300 µL/min/mg.

A word on the Km: it is the substrate concentration at which the rate is half of its maximum. In general, stoichiometry N refers to the number of molecules, sites or subunits per partner or assembly. The Vmax is the top rate of the reaction or transport when substrate is in excess.
